According to US20240254227A1 (Alector, published 2024):
Numbering of substitutions follows the chain as printed.

T1: recombinant human CD300LB overexpressed on Jurkat cells (human, UniProt A8K4G0 18-201)
T1 construct: also called huCD300LB; huCD300LB-expressing Jurkat cells
T1 sequence: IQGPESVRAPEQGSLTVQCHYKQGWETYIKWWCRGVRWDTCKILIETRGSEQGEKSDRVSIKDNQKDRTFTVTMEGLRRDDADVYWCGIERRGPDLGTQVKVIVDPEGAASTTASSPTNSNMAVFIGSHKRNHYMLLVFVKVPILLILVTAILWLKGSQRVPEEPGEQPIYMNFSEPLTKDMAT

T2: murine CD300LB stably expressed on Jurkat cells (mouse, UniProt Q3U497 18-209)
T2 construct: also called muCD300LB; mouse CD300LB
T2 sequence: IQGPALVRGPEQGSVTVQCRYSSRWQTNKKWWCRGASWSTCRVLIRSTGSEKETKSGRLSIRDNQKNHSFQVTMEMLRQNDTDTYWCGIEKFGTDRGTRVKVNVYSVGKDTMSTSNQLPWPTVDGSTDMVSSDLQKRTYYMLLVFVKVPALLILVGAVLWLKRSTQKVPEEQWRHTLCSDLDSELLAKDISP

T3: murine CD300E-Fc (mouse)
T3 construct: mouse IgG2a-Fc fusion (R&D Systems); the entry is the whole fusion chain; also called mCD300E; Mouse CD300E-Fc
T3 chain: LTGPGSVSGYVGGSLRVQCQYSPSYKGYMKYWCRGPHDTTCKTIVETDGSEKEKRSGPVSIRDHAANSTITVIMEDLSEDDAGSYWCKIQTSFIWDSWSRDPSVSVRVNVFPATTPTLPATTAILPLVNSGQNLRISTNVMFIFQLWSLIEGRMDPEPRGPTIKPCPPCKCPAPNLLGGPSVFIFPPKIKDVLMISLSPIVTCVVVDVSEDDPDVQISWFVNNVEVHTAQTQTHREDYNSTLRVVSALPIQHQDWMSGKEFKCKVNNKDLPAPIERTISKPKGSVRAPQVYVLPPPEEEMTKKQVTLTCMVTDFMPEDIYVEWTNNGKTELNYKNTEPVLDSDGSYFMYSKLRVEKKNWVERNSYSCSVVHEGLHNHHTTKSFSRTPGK

T4: murine CD300LB-Fc (mouse)
T4 construct: mouse IgG2a-Fc fusion (R&D Systems); the entry is the whole fusion chain; also called mCD300LB; Mouse CD300LB-Fc
T4 chain: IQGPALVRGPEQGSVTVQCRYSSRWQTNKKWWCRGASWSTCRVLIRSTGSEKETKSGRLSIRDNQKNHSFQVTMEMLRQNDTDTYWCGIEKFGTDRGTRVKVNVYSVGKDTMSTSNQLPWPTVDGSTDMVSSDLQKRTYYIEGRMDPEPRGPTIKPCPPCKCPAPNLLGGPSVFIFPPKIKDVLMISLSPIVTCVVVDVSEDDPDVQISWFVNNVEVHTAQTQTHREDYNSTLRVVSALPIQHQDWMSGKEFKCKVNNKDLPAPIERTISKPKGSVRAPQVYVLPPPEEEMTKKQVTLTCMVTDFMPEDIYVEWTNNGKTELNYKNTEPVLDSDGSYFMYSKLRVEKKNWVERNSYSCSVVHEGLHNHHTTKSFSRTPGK

B1: anti-CD300LB antibody CD-01 (antibody, V domains shown)
VH: RVQLQQSGAELVRPGASVTLSCKASGFTFTDFEMHWVKKTPVHGLEWIGAIDPESGNTAYNQKFRGKATLTADKSSSTAYMELRYLTSEDSAVYYCTPLISGADYWGQGTTLTVSS
VL: DVVMTQSPLSLPVSLGDQASISCRSSQSLVHSDGNTYLYWYLQKPGQSPKLLIYKVSNRFSGVPDRFSGSGSGTDFTFKISRVGAEDLGVYFCSQSTHVPWTFGGGTKLEII
B2: anti-CD300LB antibody CD-05 (antibody, V domains shown)
VH: QVQLVQSGAEVKKPGASVKVSCKASGYTFSRYYINWVRQAPGQGLEWMGWINPNSGGTNYAQKFQGRVTMTRDTSTSTVYMELSSLRSEDTAVYYCTTDQLRFGKTGPYYGMDVWGQGTTVTVSS
VL: DIQMTQSPSSLSASVGDRVTITCRASQNIGTYLNWYQQKPGKAPKLLIYAASSLQSGVPSRFSGSGSGTDFTLTISSLQPEDFATYYCQQSYSDTLTFGGGTKVEIK
B3: anti-CD300LB antibody CD-06 (antibody, V domains shown)
VH: QVQLVQSGAEVKKPGASVKVSCKASGYTFTTYAVHWVRQAPGQGLEWMGIVNPNSGGTNYAQKFQGRVTMTRDTSTSTVYMELSSLRSEDTAVYYCARDIVPMNNFYNYYYGMDVWGQGTTVTVSS
VL: B2 VL with N28S, G30S, T31S, A51T, S53T, S93R, D94I, T95P, L96Y, G100Q
B4: anti-CD300LB antibody CD-17 (antibody, V domains shown)
VH: QIQLVQSGPELKKPGETVKISCKASGYTLTDYSMHWVKQAPGKGLKWMGWINTETGEPRYGDDFKGRFAFSLETSASSAYLQINNLKNDDTATYFCATYGRSYGMDFWGQGTSVTVSS
VL: DIVLTQSPASLAVSLGQRATISCRASKSVSPSGHSYMHWYQQKPGQPPKLLIYLASNLKSGVPARFSGSGSGTDFTLNIHPVEEGDAATYYCQHNRELPPTFGGGSKLEIK
B5: anti-CD300LB antibody CD-13 (antibody, V domains shown)
VH: QIQLVQSGPELKKPGETVKISCKASGYTFTDYSMHWVKQAPGKGFKWMAWINTETGAPTHADDFRGRFAFSLETSASTAFLQISNLKTEDTATYFCVTFGKSYGMNYWGQGTSVTVSS
VL: DIVLTQSPASLSVSLGQRATISCRASKSVGSSGSSYLHWYQQKPGQPPKLLIYLASNLESGVPARFSGSGSGTEFTLNIHPVEEEDAATYYCQHNAEVPPTFGGGTKLEIK
B6: anti-CD300LB antibody CD-02 (antibody, V domains shown)
VH: QVQLQQPGAELVRPGSSVKLSCQASGYTFTNYWMHWVRQRPIQGLEWIGNIDPSDSETHYNQKFKDRATLTVDKSSSTAYMQLSSLTSEDSAVYYCARSGVYDDEGGDYWGQGTTLTVSS
VL: ENVLTQSPAIMSASPGEKVTMTCSASSSVSYIHWYQQKSSTSPKLWIYDTSKLASGVPGRFSGSGSGNSYSLTISSMETEDVATYYCFQGSGYPLTFGAGTKLELK
B7: anti-CD300LB antibody CD-11 (antibody, V domains shown)
VH: QIQLVQSGPEVKKPGETVKISCKASGYTLTDYSMHWVMQTPGTGLKWMAWMNTETGEPTYADDFKGRFAFSLETSAGTAYLQIDNLKNEDTATYFCATYGKSYGMKYWGQGTSVTVSS
VL: DIVLTQSPPSLAVSLGQRATISCRATKSVSPYLHWYQQTPGQPPKLLIYLASNLDSGVPARFSGSGSGTDFTLNIHPVEEEDAATYYCQHNKELPPTFGGGTRLEIK
B8: anti-CD300LB antibody CD-14 (antibody, V domains shown)
VH: QIQLVQSGPELKKPGETVKISCKASGYTFTDYSLHWVKQTPEKNLKWMAWINTETGAPTYADDFKGRFAFSLETSSNTAYLLINNLKNEDTATYFCALTMVNYWGQGTTLTVSS
VL: DIVMTQSQKFMSTSVGDRVSVTCKASQNVGIRVAWHQQKPGQSPKTLIYSTSYRYSGVPDRFTGSGSGTEFILTISNVQSEDLAEYFCQQYNSYPYTFGGGTKLEIK
B9: anti-CD300LB antibody CD-12 (antibody, V domains shown)
VH: QIQLVQSGPELKKPGETVKISCKASGYTFTDYSMHWVRQAPGKGLKWMAWINTETGEATHADDFKGRFDFSLDTSASTAYLQIKNLKNEDTGIYFCVCYGSSYGMDYWGQGTSVTVSS
VL: B4 VL with A12P, S30R, P31T, H34A, A64T, G85E, L98V, S106T
B10: anti-CD300LB antibody CD-15 (antibody, V domains shown)
VH: QIQLVQSGPELKKPGETVKISCQVSGYTFTDYSMHWLKQAPGKGLKWMAWINTETGESTYTDEFKGRFVFSLETSVRTAYLKINNLKNEDTATYFCGTYGSSYGMAYWGQGTSVTVSS
VL: B5 VL with S12P, G30S, S31T, N57K, S67R, E74D, A96R
B11: anti-CD300LB antibody CD-16 (antibody, V domains shown)
VH: QIQLVQSGPELKKPGETVKISCKASGYTFTDYSMHWVKQAPGKGLKWMAWINTETGEPTYADDFRGRFAFSLETSGRTAYLEINNLRNEDTATYFCVTYGSSYGMAYWGQGTSVTVSS
VL: B4 VL with P31R, H34Y, M37L, N57K, K59E, E84A, G85E, L98I, S106T

target: T1, recombinant human CD300LB overexpressed …; assay: flow cytometry, stable Jurkat cells, supernatant or 10 ug/mL, isotype subtracted
Outline: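 Jurkat cells stably expressing mouse or human CD300LB, plus parental cells, were dye-barcoded with CFSE and/or VioBlue and pooled at 240,000 cells/well. Hybridoma supernatant or purified antibody at 10 μg/mL was applied for 1 hour, then detected with an APC-labeled anti-human or anti-mouse secondary. APC gMFI on live cells was isotype-subtracted.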

gMFI [gMFI]	Binder
309	B1
1810	B2
3180	B3
13	B4
324	B5
1130	B6
50	B7
59	B8

target: T2, murine CD300LB stably expressed on …; assay: flow cytometry, stable Jurkat cells, 10 ug/mL, isotype subtracted
Protocol: Purified anti-CD300LB antibodies of the present disclosure were analyzed for cross-reactivity to other murine CD300 family members stably expressed in Jurkat cells (generation of which is described above). Cells were counted and labeled with 200 nM CFSE, 500 nM VioBlue, or a combination of the two to discriminate between muCD300LB, Parental cells, CD300F, and the other CD300 family members. Cells were washed thoroughly with PBS containing 2% fetal bovine serum then resuspended at a total of 240,000 cells per well. Purified antibodies at 10 μg/mL were added and incubated for one hour before the cells were washed twice again and stained with an APC-labeled anti-mouse secondary. Cells were then analyzed using a BD FACSCanto II. Antibodies were analyzed for specific binding to muCD300LB by FlowJo software by gating on live cells, then the APC gMFI calculated for each labeled population by subtracting the gMFI of the isotype control. The gMFI results of the analysis are presented below in Table 4.

gMFI [gMFI]	Binder
4210	B9
7920	B4
4140	B10
7600	B5
4570	B11
4660	B7
9550	B8

Target: T3, murine CD300E-Fc
Assay: SPR (Carterra LSA), antibody immobilised, Fc fusion at 300 or 600 nM
Protocol: (§1) Binding of mouse anti-CD300LB IgG1 antibodies of the present disclosure to human and murine CD300 orthologs were evaluated by surface plasmon resonance (SPR) using a Carterra LSA instrument (Carterra, Salt Lake City, UT). […] A HC200M sensor chip (Carterra) was activated using the single channel flow cell with a 7-minute injection of a 1:1:1 mixture of 100 mM MES pH 5.5, 100 mM sulfo-NHS, 400 mM EDC (all reconstituted in MES pH 5.5; 100 μL of each mixed in vial immediately before running assay). After switching to the multi-channel array flow cell, the antibodies were injected over the activated chip in a 96-spot array for 10 minutes. The remaining unconjugated active groups on the chip were then blocked by injecting 1M Ethanolamine pH 8.5 (Carterra) for 7 minutes using the single channel flow cell. After priming with running buffer (HBS-TE, Carterra) with 0.5 mg/ml BSA (Sigma), the immobilized anti-CD300LB antibodies were tested for their ability to bind human and mouse recombinant CD300LB extracellular domains. Human CD300 family members and mouse CD300A were hIgG1-Fc fusions, while mouse CD300LB, mouse CD300C, mouse CD300D, and mouse CD300E were mouse IgG2a-Fc fusions (R&D Systems). Binding was assessed by injecting each analyte over the entire antibody array using the single channel flow cell. CD300 analytes were diluted to 300 nM or 600 nM in running buffer and injected in series without regeneration. Two or three buffer blanks were run between each mouse or human ortholog, respectively. Data were processed and analyzed using NextGenKIT high-throughput kinetics analysis software (Carterra).
(§2) Results of anti-CD300LB antibody binding to murine CD300 family members is provided below in Table 8.

SPR binding (control subtracted)	Binder
-0.6	B9
-0.7	B4
0.8	B10
4.5	B5
8.6	B11
7.4	B7
3.6	B8

Target: T4, murine CD300LB-Fc
Assay: as above
Protocol: as §1, §2

SPR binding (control subtracted)	Binder
43.2	B9
11.3	B4
50	B10
82.4	B5
310	B11
87.7	B7
29	B8
